# Literature values, collected in patent US20070178499.
# Tests used:
# [1] = system: Aart(S) 6-finger (artificial); conditions: CITED?; affinity stated without method
# [2] = system: E2C(S) 6-finger (artificial); conditions: CITED (Beerli 2000)
Substance,Kd [1],binding signal (fold loss in affinity vs n8) [2]
Aart 18-bp target site,7.5 pM,–
E3 site of erbB-3,–,15
